Test results: patent US20160145598

Target: thrombin

B1: FX-control+ of family 2 (insertion of the thrombin recognition site on fibrinogen = fibrinopeptide A; comparative) (protein)
chain: ANSFLEEMKKGHLERECMEETCSYEEAREVFEDSDKTNEFWNKYKDGDQCETSPCQNQGKCKDGLGEYTCTCLEGFEGKNCELFTRKLCSLDNGDCDQFCHEEQNSVVCSCARGYTLADNGKACIPTGPYPCGKQTLERRKRSVAQATSSSGEAPDSITWKPYDAADLDPTENPFDLLDFNQTQPERGDNNLTRDFLAEGGGVRIVGGQECKDGECPWQALLINEENEGFCGGTILSEFYILTAAHCLYQAKRFKVRVGDRNTEQEEGGEAVHEVEVVIKHNRFTKETYDFDIAVLRLKTPITFRMNVAPACLPERDWAESTLMTQKTGIVSGFGRTHEKGRQSTRLKMLEVPYVDRNSCKLSSSFIITQNMFCAGYDTKQEDACQGDSGGPHVTRFKDTYFVTGIVSWGEGCARKGKYGIYTKVTAFLKWIDRSMKTRGLPKAKSHAPEVITSSPLKEDQVDPRLIDGK
- appearance of FXa after incubation with thrombin (Pefachrome FXa8595 hydrolysis at 405 nm): FX-IIa and FX-control+ are capable of being activated by thrombin and of releasing FXa
